Data taken from article PMC5010584, “Comparison of Ga-68-Labeled Fusarinine C-Based Multivalent RGD Conjugates and [^68Ga]NODAGA-RGD—In Vivo Imaging Studies in Human Xenograft Tumors” (Molecular Imaging and Biology, 2016).
Read-outs that look alike come from different tables or passages of the source.

Key:
[1] = Ex vivo biodistribution in mice bearing M21/M21-L xenografts; settings: mouse, in vivo, iv
Protocol: (§1) For the induction of tumor xenografts, female, athymic BALB/c nude mice (Charles River Laboratories) were injected subcutaneously with either 5 × 10^6 integrin αvβ3-positive M21 cells into the right hind limb and with 5 × 10^6 integrin αvβ3-negative M21-L cells (negative control) into the left hind limb of the same mouse. […] On the day of the experiment, [^68Ga]FSC(succ-RGD)3, [^68Ga]FSC(RGDfE)3, or [^68Ga]FSC(Mal-RGD)3 (∼0.5 MBq/mouse, ∼0.5 μg peptide, respectively) was intravenously injected in the lateral tail vein. Mice were euthanized by cervical dislocation at 1 and 2 h (only for [^68Ga]FSC(succ-RGD)3) after injection. Organs (spleen, pancreas, stomach, intestine, kidney, liver, heart, and lung), blood, muscle tissue, and tumors were dissected and weighed. Activity of the different samples was measured in the gamma counter. Results were expressed as percentage of injected dose per gram tissue (% ID/g).

[2] = test system: integrin αvβ3-positive (M21) and integrin αvβ3-negative (M21-L) human melanoma tumors; assay: as above
Protocol: as §1

[3] = Distribution coefficient (logD), octanol/PBS; type: physicochemical
Protocol: A volume of 500 μl PBS including 0.5 MBq radioligand (approximately 0.5 μg peptide) was combined with 500 μl octanol; the mixture was vortexed for 15 min and centrifuged for 2 min at 2000 rcf. From each phase, an aliquot (50 μl) was pipetted out and measured in a 2480 Wizard2 Automatic Gamma Counter (PerkinElmer, Vienna, Austria). Each measurement was repeated five times. LogD value was calculated as the average log ratio of the radioactivity in the organic fraction and the PBS fraction.

[4] = test system: M21 cells (integrin αvβ3 positive); assay: Internalization assay in M21 cells; type: cell-based, human; settings: 90-min incubation, 37 °C
Protocol: One-milliliter aliquots in Eppendorf tubes were incubated at 37 °C for 1 h in triplicates, and [^68Ga]FSC(succ-RGD)3, [^68Ga]FSC(RGDfE)3, or [^68Ga]FSC(Mal-RGD)3 (approximately 1.5 × 10^6 cpm, 1.2 μg peptides) in PBS with 0.5 % BSA (150 μl, total series) or with 10 μM c(RGDyV) in PBS/0.5 % BSA (150 μl, nonspecific series) at 37 °C was added. After 90-min incubation was stopped by centrifugation, the medium was removed followed by washing (twice) with ice-cold Tris-buffered saline. After incubation in acid wash buffer (20 mM acetate buffer, pH 4.5) at 37 °C for 5 min (two times) and centrifugation, membrane bound activity was collected in plastic vials. Internalized radioligand fraction was collected after lysing cells by addition of 2 M NaOH. The internalized activity was expressed as percentage of total activity per milligram protein after spectrophotometric determination of protein (Bradford assay) in the NaOH fraction.

[5] = target: T1, integrin αvβ3 (Homo sapiens, UniProt P05106+P06756); assay: Binding affinity for immobilized integrin αvβ3, displacement of [^125I]c(RGDyV); settings: isolated integrin αvβ3, radioligand [^125I]c(RGDyV), three independent measurements
T1 construct: purchased Millipore-Chemicon, Temecula, CA, USA
T1 sequence (P06756 31-889 limits assumed): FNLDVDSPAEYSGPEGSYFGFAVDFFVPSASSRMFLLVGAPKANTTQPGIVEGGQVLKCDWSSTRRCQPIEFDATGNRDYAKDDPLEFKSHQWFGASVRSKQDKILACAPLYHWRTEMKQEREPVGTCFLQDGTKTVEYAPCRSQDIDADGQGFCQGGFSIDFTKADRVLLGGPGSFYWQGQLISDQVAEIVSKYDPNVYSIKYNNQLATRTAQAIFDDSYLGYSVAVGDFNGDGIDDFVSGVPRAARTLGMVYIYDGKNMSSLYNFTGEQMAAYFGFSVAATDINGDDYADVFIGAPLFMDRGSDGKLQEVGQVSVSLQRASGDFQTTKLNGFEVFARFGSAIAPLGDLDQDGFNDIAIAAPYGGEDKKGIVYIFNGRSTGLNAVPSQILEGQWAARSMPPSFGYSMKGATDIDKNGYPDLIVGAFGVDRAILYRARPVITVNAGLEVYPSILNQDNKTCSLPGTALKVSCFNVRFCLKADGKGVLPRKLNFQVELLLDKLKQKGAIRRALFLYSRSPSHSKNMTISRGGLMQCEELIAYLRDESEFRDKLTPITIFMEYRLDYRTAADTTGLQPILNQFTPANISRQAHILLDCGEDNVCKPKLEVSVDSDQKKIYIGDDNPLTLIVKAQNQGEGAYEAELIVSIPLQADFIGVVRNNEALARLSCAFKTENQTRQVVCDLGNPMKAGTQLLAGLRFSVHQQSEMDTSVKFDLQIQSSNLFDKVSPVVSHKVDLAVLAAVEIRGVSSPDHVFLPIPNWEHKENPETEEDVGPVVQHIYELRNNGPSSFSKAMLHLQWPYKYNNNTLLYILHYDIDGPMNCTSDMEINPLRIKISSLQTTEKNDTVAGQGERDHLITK
T1 sequence (P06756 891-1048 limits assumed): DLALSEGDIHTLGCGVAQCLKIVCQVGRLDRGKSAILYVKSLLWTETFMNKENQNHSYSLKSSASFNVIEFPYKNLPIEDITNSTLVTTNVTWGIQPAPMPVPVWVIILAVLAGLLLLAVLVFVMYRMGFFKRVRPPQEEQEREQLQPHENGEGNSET
T1 sequence (P05106 27-788): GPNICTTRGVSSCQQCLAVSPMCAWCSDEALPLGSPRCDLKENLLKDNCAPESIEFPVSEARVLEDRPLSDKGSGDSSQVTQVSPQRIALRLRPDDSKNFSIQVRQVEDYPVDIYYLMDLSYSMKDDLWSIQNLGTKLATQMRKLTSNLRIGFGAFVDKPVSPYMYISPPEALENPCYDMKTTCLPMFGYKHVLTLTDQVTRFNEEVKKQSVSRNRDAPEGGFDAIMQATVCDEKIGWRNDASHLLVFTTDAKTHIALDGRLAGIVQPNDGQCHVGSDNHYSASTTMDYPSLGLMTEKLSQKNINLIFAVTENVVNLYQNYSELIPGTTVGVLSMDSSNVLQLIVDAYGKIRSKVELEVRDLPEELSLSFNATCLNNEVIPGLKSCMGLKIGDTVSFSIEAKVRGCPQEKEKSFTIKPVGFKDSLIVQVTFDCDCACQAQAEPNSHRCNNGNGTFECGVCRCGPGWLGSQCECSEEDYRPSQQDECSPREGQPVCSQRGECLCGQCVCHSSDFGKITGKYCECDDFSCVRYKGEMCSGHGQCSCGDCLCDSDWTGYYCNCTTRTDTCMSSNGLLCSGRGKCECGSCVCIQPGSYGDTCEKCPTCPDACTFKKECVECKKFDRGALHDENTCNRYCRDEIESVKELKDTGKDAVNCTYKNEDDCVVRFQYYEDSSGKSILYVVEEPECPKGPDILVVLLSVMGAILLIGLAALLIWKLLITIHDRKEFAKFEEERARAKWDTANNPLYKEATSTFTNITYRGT
Protocol: In vitro binding affinities of cyclo(-Arg-Gly-Asp-DTyr-Val-) (c(RGDyV)) and the three FSC-RGD conjugates were determined by using isolated integrin αvβ3 (Millipore-Chemicon, Temecula, CA, USA) and I-125-labeled c(RGDyV) as radioligand. ([^125I]c(RGDyV) was produced as described in [18]). To integrin αvβ3, coated overnight at 4 °C onto 96-well plates (Nunc, Thermo Fisher Scientific, Vienna, Austria), [^125I]c(RGDyV) and the corresponding peptides in increasing concentrations from 0.001 to 100 nM were added. Plates were washed, and integrin bound activity was recovered with 2-M NaOH solution and counted in a gamma counter. OriginPro 8.5 software (Northampton, MA, USA) was used to calculate half maximal inhibitory concentration (IC50) values in three independent measurements.

[6] = test system: integrin αvβ3-positive (M21) and integrin αvβ3-negative (M21-L) human melanoma tumors; settings: 1 h, cited from earlier work
[7] = MicroPET/CT imaging in U87MG tumor-bearing mice; settings: mouse, uptake value in tumor (ROI analysis), U87MG xenograft, PET, 90 min p.i., retro-orbital
Protocol: To investigate the capabilities of binding to the integrin αvβ3 receptors in the different tumor xenograft models and, at the same time, compare the imaging properties of [^68Ga]FSC(succ-RGD)3 and [^68Ga]NODAGA-RGD, two U87MG tumor-bearing mice were administered retro-orbitally (r.o.) under general anesthesia with [^68Ga]FSC(succ-RGD)3 and [^68Ga]NODAGA-RGD each other (∼6 MBq/mouse, ∼5 μg peptide) at continued days. For the induction of tumor xenografts, female, athymic BALB/c nude mice (AnLab, Prague, Czech Republic) were injected subcutaneously with 5 × 10^6 U87MG cells into the right flank. The tumors were allowed to grow until they had reached a volume of 0.5 to 0.8 cm^3. Imaging experiments were conducted on an Albira microPET/SPECT/CT imaging system (Bruker Biospin Corporation, Woodbridge, CT, USA). MicroPET/CT images were acquired under general anesthesia (isoflurane/O2) and heating at 37 °C. PET data for each mouse was recorded via either dynamic imaging for 90 min (5-min PET scan per frame) or static scans (a 5-min PET scan (axial FOV 148 mm) was performed, followed by a 25-min CT scan (axial FOV 65 mm, 45 kVp, 400 μA, at 600 projections)) at 90 min p.i. […] The uptake values (%ID/g) in kidneys, heart, and tumor were analyzed by drawing standardized volumes of interest.

[8] = test system: integrin αvβ3-positive M21 tumor; settings: mouse, in vivo, iv
Protocol: To compare the imaging properties of [^68Ga]FSC(succ-RGD)3, [^68Ga]FSC(RGDfE)3, and [^68Ga]FSC(Mal-RGD)3, microPET/CT imaging experiments were conducted on an Inveon microPET/CT scanner (Siemens Preclinical Solutions, Knoxville, USA). BALB/c nude mice bearing M21-positive tumor xenografts were administered with [^68Ga]FSC(succ-RGD)3 (or [^68Ga]FSC(RGDfE)3, [^68Ga]FSC(Mal-RGD)3, ∼5 MBq/mouse, ∼5 μg peptide) via intravenous (i.v.) injection. The body temperature of mice was maintained at 37 °C on the scanner bed and in the incubation chambers using heating pads. Dynamic 10-min duration PET scans were performed for 50 min while static PET scans (10 min) were performed at 1-h post-injection (p.i.), followed by a 25-min CT scan (spatial resolution, 113 μm; 80 kV, 500 mA). The mice remained under general anesthesia (isoflurane/O2) during the time between injection and imaging. […] Spherical isocontours were set at 50 % of the maximal pixel value to measure uptake values (Bq/ml) in kidneys, heart, and tumor.

[9] = M21 model, 1 h p.i., not statistically significant

| Structure (SMILES) | tissue uptake at 1 h ([1]; Heart uptake) [%ID/g] | tissue uptake at 1 h ([1]; Intestine uptake) [%ID/g] | tissue uptake at 1 h ([1]; Kidneys uptake) [%ID/g] | tissue uptake at 1 h ([1]; Liver uptake) [%ID/g] | tissue uptake at 1 h ([1]; Lung uptake) [%ID/g] | tissue uptake at 1 h ([1]; M21-L tumor uptake) [%ID/g] | tissue uptake at 1 h ([1]; M21 tumor uptake) [%ID/g] | tissue uptake at 1 h ([1]; Muscle uptake) [%ID/g] | tissue uptake at 1 h ([1]; Pancreas uptake) [%ID/g] | tissue uptake at 1 h ([1]; Stomach uptake) [%ID/g] | M21-L tumor uptake ([2]; mouse, in vivo, iv, 1 h) [% ID/g] | logD [3] | internalized activity, % of total activity per milligram protein [4] [% cpm/mg] | other results |
| --- | --- | --- | --- | --- | --- | --- | --- | --- | --- | --- | --- | --- | --- | --- |
| C/C1=C/C(=O)N(O)CCC[C@H](NC(=O)CC[C@@H]2NC(=O)[C@@H](Cc3ccccc3)NC(=O)[C@H](CC(=O)O)NC(=O)CNC(=O)[C@H](CCCNC(=N)N)NC2=O)C(=O)OCC/C(C)=C\C(=O)N(O)CCC[C@H](NC(=O)CC[C@@H]2NC(=O)[C@@H](Cc3ccccc3)NC(=O)[C@H](CC(=O)O)NC(=O)CNC(=O)[C@H](CCCNC(=N)N)NC2=O)C(=O)OCC/C(C)=C\C(=O)N(O)CCC[C@H](NC(=O)CC[C@@H]2NC(=O)[C@@H](Cc3ccccc3)NC(=O)[C@H](CC(=O)O)NC(=O)CNC(=O)[C@H](CCCNC(=N)N)NC2=O)C(=O)OCC1 [[^68Ga]FSC(RGDfE)3, metal not drawn] | 1.52 ± 0.13 | 3.21 ± 0.48 | 11.5 ± 1.87 | 12.1 ± 1.34 | 2.48 ± 1.07 | 1.1 ± 0.3 | 5.49 ± 0.94 | 0.94 ± 0.09 | 1.04 ± 0.12 | 4.76 ± 0.25 | 1.25 ± 0.06 | -3.8 ± 0.2 | 5.3 ± 0.7 | tissue uptake at 1 h ([1]; Blood uptake): 0.4 ± 0.08 %ID/g; tissue uptake at 1 h ([1]; Spleen uptake): 9.13 ± 0.27 %ID/g |
| CC(C)[C@@H]1NC(=O)[C@@H](Cc2ccc(O)cc2)NC(=O)[C@H](CC(=O)O)NC(=O)CNC(=O)[C@H](CCCNC(=N)N)NC1=O [c(RGDyV), cyclo(-Arg-Gly-Asp-DTyr-Val-)] | – | – | – | – | – | – | – | – | – | – | – | – | – | IC50 [5]: 6.2 ± 1.6 nM |
| N=C(N)NCCC[C@@H]1NC(=O)[C@H](CCCCNC(=O)CCC(C(=O)O)N2CCN(CC(=O)O)CCN(CC(=O)O)CC2)NC(=O)[C@@H](Cc2ccccc2)NC(=O)[C@H](CC(=O)O)NC(=O)CNC1=O (stereo partly drawn) [[^68Ga]NODAGA-RGD, metal not drawn] | – | – | – | – | – | – | – | – | – | – | – | – | – | higher tumor to blood ratio versus [^68Ga]FSC(succ-RGD)3 [2, 9]: 1.8 fold; higher tumor to kidney ratio versus [^68Ga]FSC(succ-RGD)3 [2, 9]: 2 fold; M21/kidneys ratio ([6]; same murine model, calculated based on the literature data ref 14): 1.0 ± 0.4; M21 tumor uptake ([6]; mouse, in vivo): 1.3 %ID/g |
| C/C1=C/C(=O)N(O)CCC[C@H](NC(=O)CCC(=O)NCCCC[C@@H]2NC(=O)[C@@H](Cc3ccccc3)NC(=O)[C@H](CC(=O)O)NC(=O)CNC(=O)[C@H](CCCNC(=N)N)NC2=O)C(=O)OCC/C(C)=C\C(=O)N(O)CCC[C@H](NC(=O)CCC(=O)NCCCC[C@@H]2NC(=O)[C@@H](Cc3ccccc3)NC(=O)[C@H](CC(=O)O)NC(=O)CNC(=O)[C@H](CCCNC(=N)N)NC2=O)C(=O)OCC/C(C)=C\C(=O)N(O)CCC[C@H](NC(=O)CCC(=O)NCCCC[C@@H]2NC(=O)[C@@H](Cc3ccccc3)NC(=O)[C@H](CC(=O)O)NC(=O)CNC(=O)[C@H](CCCNC(=N)N)NC2=O)C(=O)OCC1 [[^68Ga]FSC(succ-RGD)3, metal not drawn] | 1.21 ± 0.28 | 2.41 ± 0.8 | 8.12 ± 1.09 | 3.54 ± 0.63 | 2.42 ± 0.22 | 1.25 ± 0.06 | 3.69 ± 0.94 | 0.52 ± 0.19 | 0.61 ± 0.13 | 2.02 ± 1.35 | 1.10 ± 0.30 | -3.6 ± 0.1 | 5.7 ± 0.6 | tissue uptake at […] [7]: 3.8 %ID/g; M21/kidneys ratio ([2]; 1 h p.i.): 0.5 ± 0.1; M21/kidneys ratio ([2]; 2 h p.i.): 0.6 ± 0.1; Blood uptake ([2]; mouse, in vivo, iv, 1 h): 0.63 ± 0.26 % ID/g; Spleen uptake ([2]; mouse, in vivo, iv, 1 h): 3.27 ± 0.64 % ID/g; earliest visualization of the receptor-positive tumor in dynamic PET [8]: 10 min p.i. |
